Substrate: CC(=O)SCCNC(=O)CCNC(=O)[C@H](O)C(C)(C)COP(=O)(O)OP(=O)(O)OC[C@H]1O[C@@H](n2cnc3c(N)ncnc32)[C@H](O)[C@@H]1OP(=O)(O)O
Experiment: purified protein, by the assay type
Conditions: other: Lineweaver-Burk analysis, partially purified recombinant TAX6

B1: 10-deacetylbaccatin III-10-O-acetyl transferase (TAX6) (Taxus cuspidata) (protein)
chain: MAGSTEFVVRSLERVMVAPSQPSPKAFLQLSTLDNLPGVRENIFNTLLVYNASDRVSVDPAKVIRQALSKVLVYYSPFAGRLRKKENGDLEVECTGEGALFVEAMADTDLSVLGDLDDYSPSLEQLLFCLPPDTDIEDIHPLVVQVTRFTCGGFVVGVSFCHGICDGLGAGQFLIAMGEMARGEIKPSSEPIWKRELLKPEDPLYRFQYYHFQLICPPSTFGKIVQGSLVITSETINCIKQCLREESKEFCSAFEVVSALAWIARTRALQIPHSENVKLIFAMDMRKLFNPPLSKGYYGNFVGTVCAMDNVKDLLSGSLLRVVRIIKKAKVSLNEHFTSTIVTPRSGSDESINYENIVGFGDRRRLGFDEVDFGWGHADNVSLVQHGLKDVSVVQSYFLFIRPPKNNPDGIKILSFMPPSIVKSFKFEMETMTNKYVTKP
With B1 as the protein, how does the Km read?
The Km was 8 µM.

— US7153676B1, “Transacylases of the paclitaxel biosynthetic pathway” (priority 1999, dated 2006)
